{
  "source": "paper PMC7877911",
  "about": "(eLife, 2021)",
  "key": {"[1]": {"target": "T3 SAMase (Enterobacteria phage T3, UniProt P07693)", "sequence (P07693 whole entry)": "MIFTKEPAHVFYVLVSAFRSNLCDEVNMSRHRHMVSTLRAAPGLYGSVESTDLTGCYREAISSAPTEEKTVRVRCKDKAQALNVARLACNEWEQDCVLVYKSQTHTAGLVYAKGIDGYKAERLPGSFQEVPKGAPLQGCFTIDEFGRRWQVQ", "conditions": "2 mM SAM, 50 mM NaPi pH 7.4, 25°C"}, "[2]": {"target": "His6-tagged Svi3-3_d19 (environmental phage)", "assay": "SEC-SAXS; His6-tagged Svi3-3_d19 at 10-13 mg/ml with and without 5 mM SAM; Shodex KW403 column, 25 mM Tris-HCl pH 8.0, 150 mM NaCl"}, "[3]": {"target": "His6-tagged Svi3-3_d19 (environmental phage)", "assay": "SEC; HiLoad 16/60 Superdex 75 pg, 25 mM Tris-HCl, 150 mM NaCl, pH 8.0; His-tagged protein eluted from Ni Sepharose"}, "[4]": {"target": "Svi3-3_d19 (N-terminally truncated 146 amino acid construct of SAMase Svi3-3, hexahistidine tag removed) (environmental phage)", "assay": "crystal structure; Svi3-3_d19 (10 mg/ml) crystallised with 5 mM SAM (product MTA bound), with 5 mM SAH, or without ligand; sitting drop, 293 K, 0.4-0.6 M ammonium phosphate; space group F4(1)32, one monomer in the asymmetric unit, trimer around the threefold crystallographic axis"}, "[5]": {"target": "Svi3-3_d19 E69A (environmental phage)", "assay": "SEC; HiLoad 16/60 Superdex 75 pg, 25 mM Tris-HCl, 150 mM NaCl, pH 8.0; His-tagged protein eluted from Ni Sepharose"}, "[6]": {"target": "Svi3-3_d19 E69Q (environmental phage)", "assay": "SEC; HiLoad 16/60 Superdex 75 pg, 25 mM Tris-HCl, 150 mM NaCl, pH 8.0; His-tagged protein eluted from Ni Sepharose"}, "[7]": {"target": "Svi3-3_d19 E105Q (environmental phage)", "assay": "SEC; HiLoad 16/60 Superdex 75 pg, 25 mM Tris-HCl, 150 mM NaCl, pH 8.0; His-tagged protein eluted from Ni Sepharose"}},
  "data": [
    {"compound": "C[S+](CC[C@H](N)C(=O)O)C[C@H]1O[C@@H](n2cnc3c(N)ncnc32)[C@H](O)[C@@H]1O", "note": "(stereo partly drawn) [SAM, S-(5’-Adenosyl)-L-methionine]", "values": [
      {"measurement": "TLC of reaction products; ion exchange chromatography", "setting": "[1]", "result": "The same assay was performed with T3 SAMase and Orf1"}
    ]},
    {"compound": "His6-tagged Svi3-3_d19 (enzyme)", "values": [
      {"measurement": "stoichiometry N", "setting": "[2]", "result": 3},
      {"measurement": "stoichiometry N", "setting": "[3]", "result": 3}
    ]},
    {"compound": "Svi3-3_d19 (N-terminally truncated 146 amino acid construct of SAMase Svi3-3, hexahistidine tag removed) (enzyme)", "values": [
      {"measurement": "stoichiometry N", "setting": "[4]", "result": 3}
    ]},
    {"compound": "Svi3-3_d19 E69A (enzyme)", "values": [
      {"measurement": "stoichiometry N", "setting": "[5]", "result": 3}
    ]},
    {"compound": "Svi3-3_d19 E69Q (enzyme)", "values": [
      {"measurement": "stoichiometry N", "setting": "[6]", "result": 3}
    ]},
    {"compound": "Svi3-3_d19 E105Q (enzyme)", "values": [
      {"measurement": "stoichiometry N", "setting": "[7]", "result": 3}
    ]}
  ]
}
